Experimental data as given in patent US10640563B2, “Anti-B7-H3 antibodies and antibody drug conjugates” (AbbVie Inc., priority 2016, dated 2020).

Experiments:
NCI-H146 xenograft = assay: NCI-H146 small cell lung cancer xenograft efficacy; format: in vivo, mouse; settings: NCI-H146 xenograft in SCID/bg mice; 10 mg/kg IP QDx1
Procedure: Antibody MSL109 (an IgG1 antibody that binds to cytomegalovirus (CMV) glycoprotein H) was used as a control, both as a naked antibody and as an ADC (conjugated to the same synthon (CZ) as the chAb3, chAb18, and chAb13 antibodies). MSL109 is an isotype matched non-targeting control. The methods of this xenograft assay are described below.
NCI-H146 cells, NCI-1650 cells, and EBC-1 cells were obtained from the American Type Culture Collection (ATCC, Manassas, Va.). The cells were cultured as monolayers in RPMI-1640 (NCI-H146, NCI-H1650) or MEM (EBC-1) culture media (Invitrogen, Carlsbad, Calif.) that was supplemented with 10% Fetal Bovine Serum (FBS, Hyclone, Logan, Utah). To generate xenografts, 5×10^6 viable cells were inoculated subcutaneously into the right flank of immune deficient female SCID/bg mice (Charles River Laboratories, Wilmington, Mass.) respectively. The injection volume was 0.2 mL and composed of a 1:1 mixture of S MEM and Matrigel (BD, Franklin Lakes, N.J.). Tumors were size matched at approximately 200 mm^3. Antibodies and conjugates were formulated in 0.9% sodium chloride for injection and injected intraperitoneally. […] Therapy began within 24 hours after size matching of the tumors. Mice weighed approximately 22 g at the onset of therapy. Tumor volume was estimated two to three times weekly. Measurements of the length (L) and width (W) of the tumor were taken via electronic caliper and the volume was calculated according to the following equation: V=L×W^2/2. Mice were euthanized when tumor volume reached 3,000 mm3 or skin ulcerations occurred. Eight mice were housed per cage. Food and water were available ad libitum. Mice were acclimated to the animal facilities for a period of at least one week prior to commencement of experiments. Animals were tested in the light phase of a 12-hour light: 12-hour dark schedule (lights on at 06:00 hours). As described above, human IgG control antibody (MSL109) was used as a negative control agent.
To refer to efficacy of therapeutic agents, parameters of amplitude (TGImax), durability (TGD) of therapeutic response are used. TGImax is the maximum tumor growth inhibition during the experiment. Tumor growth inhibition is calculated by 100*(1−Tv/Cv) where Tv and Cv are the mean tumor volumes of the treated and control groups, respectively. TGD or tumor growth delay is the extended time of a treated tumor needed to reach a volume of 1 cm^3 relative to the control group. TGD is calculated by 100*(Tt/Ct−1) where Tt and Ct are the median time periods to reach 1 cm^3 of the treated and control groups, respectively.

[1] = tested on: HCC38 (breast cancer) cells; assay: In vitro cell viability assay (CellTiter-Glo), HCC38; format: cell-based, human; settings: ADC with synthon CZ; HCC38 breast cancer cells; viability after 5 days; read-out: Cytotoxicity (HCC38 cell line IC50nM)
Procedure: (§1) Nine anti-B7-H3 chimeric antibodies were conjugated to the Bcl-xL inhibiting (Bcl-xLi) synthon CZ (Example 2.1) using conjugation Method A described below. The resulting ADCs (anti-B7-H3 antibodies conjugated to synthon CZ) were tested for binding to cell surface human B7-H3 by FACS (as described in Example 6) and for cell cytotoxicity in cell lines expressing B7-H3. […] Table 6 provides cell surface binding and cytotoxicity activity of anti-B7-H3 chimera ADCs against breast cancer cell HCC38 expressing human B7-H3.
The tumor cell lines HCC38 (breast cancer), NCI-H1650 (NSCLC) and NCI-H847 (small cell lung cancer cell line) were obtained from American Type Culture Collection (ATCC). Cells were grown in 96-well culture plates using recommended growth media overnight at a density of 5×10^3 (HCC38) or 20×10^3 (NCI-H847) or 40×10^3 (NCI-H1650) per well. The following day, treatments were added in fresh media to triplicate wells. Cellular viability was determined 5 days later using the CellTiter-Glo Luminescent Cell Viability Assay kit (Promega), as directed in the manufacturer's protocol. Cell viability was assessed as percentage of control untreated cells.

[2] = Size exclusion chromatography, % aggregate of ADC; format: physicochemical; settings: ADC with synthon CZ, conjugation Method A
Procedure: The DAR and percentage aggregation of ADCs synthesized were determined by LC-MS and size exclusion chromatography (SEC), respectively.
Size exclusion chromatography was performed using a Shodex KW802.5 column in 0.2 M potassium phosphate pH 6.2 with 0.25 mM potassium chloride and 15% IPA at a flow rate of 0.75 ml/min. The peak area absorbance at 280 nm was determined for each of the high molecular weight and monomeric eluents by integration of the area under the curve. The % aggregate fraction of the conjugate sample was determined by dividing the peak area absorbance at 280 nm for the high molecular weight eluent by the sum of the peak area absorbances at […] of the high molecular weight and monomeric eluents multiplied by 100%.

[3] = Observation after conjugation to synthon (Method A); format: physicochemical; settings: after conjugation to Bcl-xLi synthon CZ
Procedure: as §1
A solution of Bond-Breaker™ tris(2-carboxyethyl)phosphine (TCEP) solution (10 mM, 0.017 mL) was added to a solution of antibody (10 mg/mL, 1 mL) preheated to 37° C. The reaction mixture was kept at 37° C. for 1 hour. The solution of reduced antibody was added to a solution of synthon (3.3 mM, 0.160 mL in DMSO) and gently mixed for 30 minutes. The reaction solution was loaded onto a desalting column (PD10, washed with Dulbecco's phosphate-buffered saline [DPBS] 3× before use), followed by DPBS (3 mL). The purified ADC solution was filtered through a 0.2 micron, low protein-binding 13 mm syringe-filter and stored at 4° C.

HCC38 cell line = assay: Cell cytotoxicity of ADCs in HCC38 cell line; format: cell-based; settings: CZ conjugates
Procedure: The humanization of chAb18 generated 10 variants (described above in Table 9) that retained binding to human and cyno B7-H3 as assessed by FACS (the method of which is described above in Example 6). These variants were further characterized for binding by SPR and were successfully conjugated to the Bcl-xL inhibitor synthon CZ using Method A (described above) and assessed for cell cytotoxicity as described in Example 7. The parental chAb18 from which the variants were derived was also tested as a comparator. All humanized variants had similar binding properties as assessed by biacore, and retained binding activity to cell surface expressed as conjugates with the CZ synthon. The cytotoxicity of all of the variants as CZ synthons were similar to the chAb18 from which they were derived.
Humanized chAb18 variants were conjugated to the CZ synthon and tested for cytotoxicity in HCC38 cell line.

Row | Molecule | TGD (%) (NCI-H146 xenograft) | TGImax (%) (NCI-H146 xenograft) | IC50 [1] [nM] | % agg by SEC [2] [%] | Conjugation observation [3] | IC50 (HCC38 cell line; Table 14) [nM] | IC50 (HCC38 cell line; Table 10) [nM]
1 | MSL109: an IgG1 antibody that binds to cytomegalovirus (CMV) glycoprotein H; isotype matched non-targeting control [reference compound] | 0 | 0 | – | – | – | – | –
2 | chAb13-CZ (conjugate) VH: DVQLQESGPDLVKPSQSLSLTCTVTGYSITSGYSWHWIRQFPGNKLEWMGYIHSSGSTNYNPSLKSRISINRDTSKNQFFLQLNSVTTEDTATYYCAGYDDYFEYWGQGTTLTVSS VL: DIVMTQSQKFMSTSVGDRVSVTCKASQNVGFNVAWYQQKPGQSPKALIYSASYRYSGVPDRFTGSGSGTDFTLTISNVQSEDLAEYFCQQYNSYPFTFGSGTKLEIK | 104 | 81 | 0.18 | 8.3 | Clear | – | –
3 | chAb2-CZ (conjugate) VH: QVQLQQPGAELVKPGASVKLSCKASGYTFTSYWMHWVKQRPGQGLEWIGMIHPDSGTTNYNEKFRSKATLTVDKSSSTAYMQLSSLTSEDSAVYYCAVYYGSTYWYFDVWGTGTTVTVSS VL: DVVMTQTPLSLPVSLGDQAYISCRSSQSLVHINGNTYLHWYRQKPGQSPKLLIYKVSNRFSGVPDRFSGSGSGTDFTLKISRVEAEDLGVYFCSQSTHFPFTFGSGTKLEIK | – | – | 4.77 | 5.9 | Precipitates | – | –
4 | chAb3-CZ (conjugate, drug conjugate; Synthetic chAb3 VH amino acid sequence; Synthetic chAb3 VL amino acid sequence) VH: QVQLQQPGAELVKPGASVKLSCKASGYTFSSYWMHWVKQRPGQGLEWIGLIHPDSGSTNYNEMFKNKATLTVDRSSSTAYVQLSSLTSEDSAVYFCAGGGRLYFDYWGQGTTLTVSS VL: DVVMTQTPLSLPVSLGDQASISCRSSQSLVHSNGDTYLRWYLQKPGQSPKLLIYKVSNRFSGVPDRFSGSGSGTDFTLKITRVEAEDLGVYFCSQSTHVPYTFGGGTKLEIK | 109 | 87 | 0.17 | 6.3 | Clear | 0.17 | –
5 | chAb18-CZ (conjugate) VH: QVQLQQSAAELARPGASVKMSCKASGYSFTSYTIHWVKQRPGQGLEWIGYINPNSRNTDYNQKFKDETTLTADRSSSTAYMQLISLTSEDSAVYYCARYSGSTPYWYFDVWGAGTTVTVSS VL: QIVLTQSPAILSASPGEKVTMTCRASSSVSYMNWYQQKPGSSPKPWIYATSNLASGVPARFSVSVSGTSHSLTISRVEAEDAATYYCQQWSSNPLTFGAGTKLELK | 100 | 90 | 0.28 | 4.3 | Clear | – | 0.28
